The data set concerns the molecule itself. The data set is described as follows: cryo-EM structure; single-particle cryo-EM of purified protein in digitonin micelles; pH 8 or pH 6, NaCl or KCl; WT also with 5 mM cAMP at pH 6; C2 symmetry imposed.

The values that follow come from paper PMC10602139, “Architecture and rearrangements of a sperm-specific Na^+/H^+ exchanger” (Research Square, 2023).

B1: sp9C1 R399A mutant, tag cleaved (cryo-EM sample) (natural protein, Strongylocentrotus purpuratus, UniProt A3RL54 30-1325, looked up)
chain: SSGGSGHTPTTQATHADDHDLTTHNGTEEHDDGHDDGHDDLHAHAPKVIVFISGSCLFGAISRSLFKKLPIPYTVVLLILGAILGVVASNVPLVEEHTRDVAHMDPHVLLQIFLPVLIFESAFAMDVHTFMRSFSQVCILALFGLVVASVLTAVLAMNLFNYNWNFSEAMMFGAIMSATDPVAVVALLKDLGASKQLGTIIEGESLLNDGCAIVIFNVFMKMVFFPQLTSTVGQNVLYFLQVAVAGPLWGYAVAKVTVFFLSHIFNDALVEITITLAATYLTYYIGDIWLEVSGVLAVVVLGLIVNAEKTSISPEVEVFLHRFWEMLAYLANTLIFMMVGVVVTQKALVAVDKMDWFYLIILYLAITIIAGMVISLFSPILSRIGYGLTWRNAVIMTWGGLRGAVGLALALVVENLAGNDVIGSKFLFHTAGIVVLTLVINATTIQTLLRILGMSDISIPKRLAMAGAVRRIHEGQNRTLNMLKSDRFLADADWDIATAACEISDPYSALSDDENAPADELTLGERKSVCPGCKAMVPNEPSPREFADMMEEARLRMLKAEKISYWKQFEHGMLAREALRLLVQHAEVAADEKDQFILVDDLKKSWQIKGIYPWLKRKLEDLISEKKIAAIPMPKYKLGKLMYKICHHMAFEVTINIAIVLNIVPIIMEFVVQDKMASVSTMAAPGSTVSSEPSSLQKIEDALRISNYVFFVIYAIEAIVKILGLGRHYIVSHWNKFDAFILVVALVDIIIAETLLKGSITINLSSIKVVKLFRLLRGLRMLRLTKALIPKLILVVNGKINNQLSLGYDVGKGYIIGEEEVGKIIDRMVDNKKILRELKHISETGRLQVVKELGLLQREHPGIAVSVKTRQAIRTILNHSRETIHELQGAGLLDEMEAHKLELTVEIKMKRLMNAPSSIPPPPPENLLKNVSWLAGDMKLIDFIKARASLLHFDYGEVIVREGDESDGLFLIVSGLVKLYGKSAFLDHDNPPVTAGSEENEVFEDYLTVGNVIGEMGVLTKKPRNATVTCETTVQVYFITAEDMNIAIDTFTLYPSLEYRLWRVVAIRIATPLIMEQMAFQGWTQEKVKLHLERGYLVDLAESHFQFNIDATLEDVILINGTAYNAHTREEIRSPCLISRTVHKLTFQYTATEEPRLFVVRNAEYNGPILDGRLDVDSKRSLISITEISSNMCLKHAAELRQKNSKVMLSRKSSGAAAKEEEDCIPNTSDVEQAAGVSPSVPTKTTPKPKSFLPSLGLSMSKERVNGEAVEESPVKTKQGEETPETEEGAAPRVNV
notes: SLC9C1, Strongylocentrotus purpuratus, full length with R399A; made in the background of the parent construct; source: HEK293F, transiently transfected; purified in digitonin (anti-GFP-nanobody resin, PreScission cleavage, gel filtration); not shown: mEGFP, C-terminal, cleaved; Twinstrep, C-terminal, cleaved
Regarding B1, the binding result is listed as “binds”.
